# Laboratory results published in publication PMC5372463, “Bacterial kinesin light chain (Bklc) links the Btub cytoskeleton to membranes” (Scientific Reports, 2017).
# T1: BtubA/B heterodimer (bacterial tubulin) from Prosthecobacter dejongeii (Prosthecobacter dejongeii, UniProt Q8GCC5 1-473; Q8GCC1 1-426)
# T1 construct: The same preparation stood as soluble (non-polymerized) heterodimer or, in polymerization buffer with GTP, as filaments; the assay tells which; Construct was a gift from JM; Andreu; also called Btubs; Btub filaments; source: E. coli C41 (DE3), co-expressed from a bicistronic construct, purified (polymerization/depolymerization cycle, SEC)
# T1 sequence (looked up) 1: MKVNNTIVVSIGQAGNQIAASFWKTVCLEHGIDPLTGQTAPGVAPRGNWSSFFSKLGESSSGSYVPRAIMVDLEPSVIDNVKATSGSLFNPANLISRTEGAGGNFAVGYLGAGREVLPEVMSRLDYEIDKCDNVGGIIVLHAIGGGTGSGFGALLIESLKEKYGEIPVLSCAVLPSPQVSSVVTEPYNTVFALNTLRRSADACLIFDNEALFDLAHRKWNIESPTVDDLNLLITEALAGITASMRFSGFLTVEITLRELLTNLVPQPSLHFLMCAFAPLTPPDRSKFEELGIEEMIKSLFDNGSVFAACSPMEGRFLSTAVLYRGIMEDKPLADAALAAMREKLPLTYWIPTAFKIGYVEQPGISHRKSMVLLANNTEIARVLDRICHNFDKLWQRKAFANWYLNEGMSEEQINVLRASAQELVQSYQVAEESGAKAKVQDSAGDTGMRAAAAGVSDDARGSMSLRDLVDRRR
# T1 sequence (looked up) 2: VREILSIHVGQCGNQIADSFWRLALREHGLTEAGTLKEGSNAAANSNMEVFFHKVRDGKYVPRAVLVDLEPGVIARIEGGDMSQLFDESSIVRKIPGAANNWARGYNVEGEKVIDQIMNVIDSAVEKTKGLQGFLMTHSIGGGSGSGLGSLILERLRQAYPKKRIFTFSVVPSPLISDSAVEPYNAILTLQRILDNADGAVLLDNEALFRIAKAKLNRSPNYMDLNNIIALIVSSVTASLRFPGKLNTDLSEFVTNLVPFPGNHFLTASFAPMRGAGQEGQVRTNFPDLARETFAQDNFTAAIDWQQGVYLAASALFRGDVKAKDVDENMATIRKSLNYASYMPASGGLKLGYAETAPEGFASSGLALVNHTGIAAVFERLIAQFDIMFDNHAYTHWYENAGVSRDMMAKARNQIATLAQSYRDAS
# Target: T1, BtubA/B heterodimer (bacterial tubulin) …
# Assay: co-sedimentation; 10 μM BtubA/B with 10 or 20 μM Bklc in polymerization buffer (20 mM TrisHCl pH 7.5, 300 mM potassium glutamate, 5 mM MgCl2, 1 mM EGTA, 2 mM GTP), 10 min 25 °C, 100.000 x g 30 min; pellet depolymerized at 4 °C (S2); densitometry of Coomassie gels
# Settings: both partners purified
binder,measurement,value
"Bacterial kinesin light chain (Bklc) from Prosthecobacter vanneervenii, C-terminal poly-histidine tag (natural protein, UniProt A8Y5U5 1-256, looked up, Bklc (bacterial kinesin light chain), Prosthecobacter vanneervenii; Uniprot id A8Y5U5_9BACT; GenBank CAP16140.1; the bklc gene was expressed from pHis17; Construct was a gift from M. Pilhofer; Monomer by SEC and AUC; also called Bklc-His; source: E. coli C41 (DE3), purified (Ni-NTA, SEC); not shown: His-tag, C-terminal, kept) MDTALERQIASASRSVEEARRLAYHDPIRVGALVEQISVLADLRQKEGDFRKAESLYREALFRAQELRKQDPDLLTGIYSLLAHLYDRWGRMDKAAEFYELALKISAENGLEESDKVATIKNNLAMIFKQLRKFERAEGYYCEALETFQRLDGEQSARVASVYNNLGVLYYSHMDVDRAQVMHERALAIRQNLHEGQMDPADLSQTFINLGAVYKAAGDFQKAEACVDRAKRIRAAMNGYHPNPRRSASLLIDKSL",stoichiometry N,~1 Bklc monomer per BtubA/B heterodimer
